Data as given in patent US20050191342A1.

Target: CD20 on Daudi target cells (human) (UniProt P11836)
Assay: cell-based or functional assay

UniProt P11836, sequence (P11836 whole entry): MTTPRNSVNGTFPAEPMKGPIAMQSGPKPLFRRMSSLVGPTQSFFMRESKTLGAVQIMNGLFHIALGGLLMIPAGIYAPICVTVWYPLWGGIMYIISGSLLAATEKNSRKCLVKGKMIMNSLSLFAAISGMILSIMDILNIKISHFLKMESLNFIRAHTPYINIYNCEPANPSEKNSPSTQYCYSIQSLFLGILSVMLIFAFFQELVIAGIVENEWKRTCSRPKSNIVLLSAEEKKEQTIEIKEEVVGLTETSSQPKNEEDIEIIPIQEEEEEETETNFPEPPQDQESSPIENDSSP

ADCC, Cr release from Daudi target cells: 10 to 15%
Substance: Rituxan™ (antibody)
